1 molecule from patent publication US20090098530A1 (CRUCELL HOLLAND B V, published 2009) can be followed below.

For this test, the target named is T1, human angiotensin-converting enzyme 2 (ACE2 protein) expressed on stably transfected PER.C6 cells (human, UniProt Q9BYF1 18-805).
T1 construct: also called human ACE2 receptor; PER.C6-ACE2
Briefly: flow cytometry on ACE2-transfected PER.C6 clones. For orientation: A flow cytometer gives signals particle by particle.

T1 sequence (Q9BYF1 18-805 limits assumed): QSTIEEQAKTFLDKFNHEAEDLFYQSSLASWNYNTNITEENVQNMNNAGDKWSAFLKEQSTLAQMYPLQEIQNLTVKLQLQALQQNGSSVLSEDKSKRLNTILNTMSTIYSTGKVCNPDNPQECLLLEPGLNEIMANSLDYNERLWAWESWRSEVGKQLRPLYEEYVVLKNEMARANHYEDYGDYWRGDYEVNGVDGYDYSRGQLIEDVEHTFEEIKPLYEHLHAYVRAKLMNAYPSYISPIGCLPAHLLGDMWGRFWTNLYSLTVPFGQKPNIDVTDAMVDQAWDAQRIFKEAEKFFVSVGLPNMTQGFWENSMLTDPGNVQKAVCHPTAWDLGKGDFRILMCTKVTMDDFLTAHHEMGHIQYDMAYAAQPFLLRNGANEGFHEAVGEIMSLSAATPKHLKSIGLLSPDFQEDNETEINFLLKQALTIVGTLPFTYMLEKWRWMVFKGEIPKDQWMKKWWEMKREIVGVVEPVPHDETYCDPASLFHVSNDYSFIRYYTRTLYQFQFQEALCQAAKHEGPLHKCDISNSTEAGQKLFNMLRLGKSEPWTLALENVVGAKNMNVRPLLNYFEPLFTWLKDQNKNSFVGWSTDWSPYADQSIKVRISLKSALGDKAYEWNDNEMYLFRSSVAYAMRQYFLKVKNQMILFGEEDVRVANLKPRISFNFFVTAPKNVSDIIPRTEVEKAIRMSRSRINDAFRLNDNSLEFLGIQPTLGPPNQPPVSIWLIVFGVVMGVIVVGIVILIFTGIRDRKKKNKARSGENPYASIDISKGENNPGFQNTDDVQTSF

B1: wild-type SARS-CoV Frankfurt 1 S318-510 fragment, myc/His-tagged (ligand)
chain: not shown
For the molecule B1, the binding result was “binds”.
